# Experimental data taken from patent publication US20250223627A1, “FLUOROGENIC SUBSTRATES FOR AMINOPEPTIDASE DETECTION IN BIOFLUIDS” (GLYMPSE BIO, INC., priority 2022, published 2025).
# Key:
# [1] = system: NASH-related proteases; assay: Probe cleavage in mouse plasma, NASH vs healthy (RFU per minute); assay type: biochemical; conditions: for disease contrast (NASH vs healthy): mouse plasma; for ability to distinguish (differentiate) between NASH and healthy samples: activity as RFU per minute in 1% mouse plasma, NASH (CDAHFD) vs healthy (CD)
# Experimental: All animals were used in accordance with animal care guidelines. Plasma was obtained from these blood samples by centrifugation at 3,500 RPM for 20 min at 4° C. The plasma was stored at −80° C. until it was needed for experimental purposes.
# Samples were mixed with protease substrates and quenchers/reporters in 96-well plates. The 96-well plates were read on a Biotech Synergy H1, using 465,535 excitation/emission settings.
# The probes of the present application were able to measure the activity of NASH-related proteases as expressed in Relative Fluorescent Unit (RFU) per minute in the two mouse populations. Probes measuring cathepsin activity were 3-fold higher in protease cleavage kinetics in mice with NASH compared to healthy mice.
# Using the method of the above example, PEGylated probes were used to measure the activity of NASH-related proteases, as expressed in RFU per minute in 1% mouse plasma samples.
# [2] = molecular target: DPP4 (Homo sapiens, UniProt P27487); assay: Recombinant protease panel, probe cleavage: dpp4; assay type: biochemical; conditions: expressed in RFU per minute
# Experimental: Substrate plates were thawed and spun down for 5 minutes to ensure the substrates were at the bottom of the wells. Proteases for each substrate plate were prepared by adding 1 protease per plate. Proteases were then diluted to 15 nM in 2 mL of specified protease buffer (see Table 5). Assay buffer was added to control wells while […] active enzyme in assay buffer was added to each sample well. Plates were spun down and then read immediately after centrifugation.
# [3] = system: Probe #762, K(Acc)(Pro-4-Obzl)G(PEG8)K(Dnp)k
# [4] = system: most other probes (FIG. 16)
# [5] = system: Probe #766, K(Acc)(Hyp)G(PEG8)K(Dnp)k
# [6] = system: Probe #768, K(Acc)(Sar)G(PEG8)K(Dnp)k
# [7] = system: a substrate (FIG. 19C)
# Sequence of DPP4 (P27487 whole entry, species assumed): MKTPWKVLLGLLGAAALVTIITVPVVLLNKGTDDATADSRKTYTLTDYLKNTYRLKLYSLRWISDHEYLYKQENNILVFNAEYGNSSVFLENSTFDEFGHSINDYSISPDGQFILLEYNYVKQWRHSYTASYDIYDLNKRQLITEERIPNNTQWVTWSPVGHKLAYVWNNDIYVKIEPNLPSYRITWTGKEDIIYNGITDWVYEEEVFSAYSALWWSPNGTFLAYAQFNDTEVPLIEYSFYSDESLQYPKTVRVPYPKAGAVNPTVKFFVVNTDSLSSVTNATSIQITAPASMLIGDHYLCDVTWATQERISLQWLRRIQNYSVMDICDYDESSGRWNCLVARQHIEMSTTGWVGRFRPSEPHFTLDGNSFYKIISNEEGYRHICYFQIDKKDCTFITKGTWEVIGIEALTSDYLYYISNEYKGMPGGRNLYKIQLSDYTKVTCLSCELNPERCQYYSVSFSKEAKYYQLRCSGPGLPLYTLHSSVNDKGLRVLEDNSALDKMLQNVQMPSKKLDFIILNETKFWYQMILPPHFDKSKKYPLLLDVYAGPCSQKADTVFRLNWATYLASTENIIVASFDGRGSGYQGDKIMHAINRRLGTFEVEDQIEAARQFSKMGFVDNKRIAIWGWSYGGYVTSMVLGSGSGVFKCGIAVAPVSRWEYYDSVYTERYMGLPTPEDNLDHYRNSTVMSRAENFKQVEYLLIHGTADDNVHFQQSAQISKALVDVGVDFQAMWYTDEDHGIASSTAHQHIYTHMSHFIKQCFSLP
substance,measurement,setting,value
AK(Acc)G-PEG8-K(Dnp)-k [Probe #680],disease contrast (NASH vs healthy),[1],Lys-Ala motif of Probe #678 (FIG. 13A) displays stronger disease contrast than the Ala-Lys motif of Probe #680
K(Acc)AG-PEG8-K(Dnp)-k [Probe #678],DPPIV (DPP4) protease activity on the probe (cleavage),[2],needed for measuring DPPIV activity
same,ability to distinguish (differentiate) between NASH and healthy samples,[1],ability to distinguish between NASH and healthy samples
same,ability to distinguish (differentiate) between NASH and healthy samples,[1]; listed as probe 678,able to differentiate between NASH and healthy samples
same,disease contrast (NASH vs healthy),[1],stronger disease contrast than the Ala-Lys motif of Probe #680
aminopeptidase n/CD13,hydrolysis of fluorogenic probe by protease,[3],evade hydrolysis from Aminopeptidase N
same,hydrolysis of fluorogenic probe by protease,[4],most other probes are susceptible to cleavage
same,hydrolysis of fluorogenic probe by protease,[5],evade hydrolysis from Aminopeptidase N
same,hydrolysis of fluorogenic probe by protease,[6],evade hydrolysis from Aminopeptidase N
dipeptidyl-peptidase 4 (DPP4 or DPPIV),cleavage of fluorogenic substrate (fluorescence over time),[7],a substrate is rapidly cleaved by DPP4 (square markers) but remains intact in buffer alone with no protease present
same,cleavage of fluorogenic probe by protease panel,[5],selective for dipeptidyl peptidases with strong preferences for DPP4
same,cleavage of fluorogenic probe by protease panel,[6],selective for dipeptidyl peptidases with strong preferences for DPP4
dpp2/7,cleavage of fluorogenic probe by protease panel,[3],Probe #762 is selective for DPP2
